Experimental data: PMC6821830

Target: TopBP1 BRCT1-6 (UniProt Q92547)
Assay: GST-TopBP1 pull-down from cell extract, blot
Settings: reference: wild-type MEFs, IR-treated; sites S29

binding against the reference: lost
Substance: E2F1 (mouse) (from UniProt Q61501) E2f1 S29A knock-in MEFs, IR-treated
